Reference: patent US20250312473A1 (BEONE MEDICINES I, published 2025)

Columns and labels:
[1] = target: T1, human 4Ig-B7H3 over-expressed on NK92mi cells (human, UniProt Q5ZPR3 29-534); assay: FACS on live NK92mi/B7H3 cells, goat anti-human IgG detection, Test1
T1 construct: Full-length protein on live engineered NK92mi cells; also called NK92mi/B7H3; native B7H3
T1 sequence: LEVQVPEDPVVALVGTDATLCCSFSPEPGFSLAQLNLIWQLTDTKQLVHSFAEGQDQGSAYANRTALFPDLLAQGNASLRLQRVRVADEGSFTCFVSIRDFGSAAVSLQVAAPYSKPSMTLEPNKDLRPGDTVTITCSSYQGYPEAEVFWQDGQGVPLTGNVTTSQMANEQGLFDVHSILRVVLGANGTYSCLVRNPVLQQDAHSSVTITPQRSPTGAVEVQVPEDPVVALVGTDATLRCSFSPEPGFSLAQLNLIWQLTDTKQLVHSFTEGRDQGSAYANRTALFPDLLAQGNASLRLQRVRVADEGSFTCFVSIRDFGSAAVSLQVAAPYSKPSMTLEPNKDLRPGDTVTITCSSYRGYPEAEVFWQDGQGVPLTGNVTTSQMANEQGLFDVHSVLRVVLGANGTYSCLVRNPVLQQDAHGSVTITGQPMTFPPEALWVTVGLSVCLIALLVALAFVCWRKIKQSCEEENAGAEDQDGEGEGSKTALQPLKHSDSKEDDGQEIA
Procedure: (§1) To evaluate the binding activity of humanized antibodies to bind native B7H3 on live cells, NK92mi cells were engineered to over-express human 4Ig-B7H3. Live NK92mi/B7H3 cells were seeded in 96-well plates and were incubated with a series of dilutions of chimeric or humanized antibodies. Goat anti-human IgG was used as second antibody to detect antibody binding to the cell surface. EC₅₀ values for dose-dependent binding to human native B7H3 were determined by fitting the dose-response data to the four-parameter logistic model with GraphPad Prism.

[2] = target: T2, ECD of human 4Ig-B7H3 (Sinobiological, Cat: 11188-H08H) (human); assay: SPR, antibody captured on anti-human Fc surface, Test 1
T2 construct: Bought protein; also called human 4Ig-B7H3 ECD
Excerpt: (§2) For affinity determination, antibodies were captured by anti-human Fc surface, and used in an affinity assay based on surface plasmon resonance (SPR) technology.

[3] = target: T1, human 4Ig-B7H3 over-expressed on NK92mi …; assay: FACS on live NK92mi/B7H3 cells, goat anti-human IgG detection, Test2
Procedure: as §1

[4] = target: T2, ECD of human 4Ig-B7H3 (Sinobiological, …); assay: SPR, antibody captured on anti-human Fc surface, Test 2
Excerpt: as §2

Row | Binder | EC50 [1] [nM] | Kd [2] [nM] | koff [2] [s⁻¹] | kon [2] [M⁻¹ s⁻¹] | EC50 [3] [nM] | Kd [4] [nM] | koff [4] [s⁻¹] | kon [4] [M⁻¹ s⁻¹]
1 | Chimeric BGA-3295 (antibody, V domains shown, Murine variable domains of BGA-3295, tested as the chimeric antibody; It was captured on an anti-human Fc surface and detected with anti-human IgG; also called Antibody BGA-3295) VH: QIQVVQSGPELVKPGSLVKISCKASGYTFTNYDINWVKQRPGQGLEWIGWIYPGDGSAYYNEKFKGKATLTADKSSSTAYMQLSSLTSENSAVYFCARWGYGGVPFAYWGQGTLVTVSA VL: not shown | 1.1 | 0.394 | 0.000284 | 720000 | – | – | – | –
2 | BGA-4348 (antibody, human IgG1, V domains shown, also called humanized antibody BGA-4348; 1st version of humanized antibody; not shown: Human kappa light chain constant region) VH: QIQLVQSGAEVKKPGSSVKVSCKASGYTFTNYDINWVRQAPGQGLEWMGWIYPGDGSAYYNEKFKGRATITADKSTSTAYMELSSLRSEDTAVYYCARWGYGGVPFAYWGQGTLVTVSS VL: DIVMTQSPDSLAVSLGERATINCKSSQSLLNDINQKNYLAWYQQKPGQSPKLLVYFASTGVSGVPDRFSGSGSGTDFTLTISSLQAEDVAVYYCQQYYSFPWTFGGGTKVEIK | 0.94 | 0.33 | 1.04e-05 | 31500 | 0.94 | 0.615 | 0.000227 | 369000
3 | BGA-5063 (antibody, human IgG1, V domains shown, Derived from BGA-4348 by framework and CDR mutations; also called humanized antibody BGA-5063; not shown: Human kappa light chain constant region) VH: QVQLVQSGAEVKKPGSSVKVSCKASGYTFTNYDINWVRQAPGQGLEWMGWIYPGDASAYYNEKFKGRATITADKSTSTAYMELSSLRSEDTAVYYCARWGYGGVPFAYWGQGTLVTVSS VL: DIVMTQSPDSLAVSLGERATINCKSSQSLLNDINQKNYLAWYQQKPGQSPKLLVYFASTGVSGVPDRFSGSGSGTDFTLTISSLQAEDVAVYYCQQYYSFPWTFGGGTKVEIK | – | – | – | – | 1.15 | 0.916 | 0.000269 | 294000
